Assay results from patent US20140087995A1 (published 2014).
Numbered stars: 1 amine (or outer) side, 2 acyl side, 3 side chain; on linkers, the order of the positions; unused ones are H or OH. Bridge positions count the residues as written; N and C are the ends. Square brackets hold non-standard residues; d marks the D form. Side chains are listed from the residue outwards. Ends that are not written are not given here. * marks the point of attachment. C20 diacid = O=C(O)CCCCCCCCCCCCCCCCCCC(=O)*; γGlu = O=C(O)[C@H](CCC(=O)[*:2])N[*:1]; C14 diacid = O=C(O)CCCCCCCCCCCCC(=O)*

T1: human amylin receptor (amylin 3(a) receptor: human calcitonin receptor with RAMP-3) (human, UniProt P30988 25-474; O60896 24-148)
T1 sequence (looked up) 1: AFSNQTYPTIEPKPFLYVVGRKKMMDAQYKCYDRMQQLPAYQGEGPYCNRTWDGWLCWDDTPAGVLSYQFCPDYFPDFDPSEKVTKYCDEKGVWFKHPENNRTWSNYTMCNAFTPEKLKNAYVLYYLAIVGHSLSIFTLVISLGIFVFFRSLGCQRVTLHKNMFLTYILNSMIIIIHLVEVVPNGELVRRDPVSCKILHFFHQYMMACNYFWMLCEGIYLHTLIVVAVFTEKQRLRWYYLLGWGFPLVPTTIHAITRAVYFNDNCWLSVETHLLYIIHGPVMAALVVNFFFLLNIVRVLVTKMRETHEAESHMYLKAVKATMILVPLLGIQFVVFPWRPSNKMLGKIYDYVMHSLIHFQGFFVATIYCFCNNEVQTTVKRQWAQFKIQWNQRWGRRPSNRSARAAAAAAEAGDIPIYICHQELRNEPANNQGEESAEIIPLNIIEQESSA
T1 sequence (looked up) 2: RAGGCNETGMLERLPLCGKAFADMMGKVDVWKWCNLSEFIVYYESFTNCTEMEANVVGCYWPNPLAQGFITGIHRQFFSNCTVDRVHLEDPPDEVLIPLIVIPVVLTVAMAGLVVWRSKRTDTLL

T2: human calcitonin receptor (human, UniProt P30988 25-474)
T2 sequence (looked up): T1 sequence (looked up) 1

T3: human calcitonin receptor (human, UniProt P30988 25-474)
T3 construct: whole, on cells; Membranes in a scintillation proximity assay (Assay VII); also called hCTR; hCT
T3 sequence (looked up): T1 sequence (looked up) 1

T4: human calcitonin receptor (human, UniProt P30988 25-474)
T4 construct: whole, on cells; Used as cell membranes; also called hCTR; hCT
T4 sequence (looked up): T1 sequence (looked up) 1

T5: human amylin receptor (amylin 3(a) receptor: human calcitonin receptor with RAMP-3) (human, UniProt P30988 25-474; O60896 24-148)
T5 construct: whole, on cells; Used as cell membranes of the Amylin 3(a)/CRE-luc BHK cells; the species of RAMP-3 is only implied by the name human amylin receptor; also called hAmylin-R; hAmylinR
T5 sequence (looked up) 1: T1 sequence (looked up) 1
T5 sequence (looked up) 2: T1 sequence (looked up) 2

B1: N^α1-[(4S)-4-carboxy-4-(19-carboxynonadecanoylamino)butanoyl]-[Glu14,Arg17,Pro21,Pro25,Pro28,Pro29,Pro37]-h-amylin (peptide)
peptide: {C20 diacid-γGlu}-KCNTATCATQRLAEFLRHSSPNFGPILPPTNVGSNTP-NH2
modifications: disulfide 2-7
SMILES: CC[C@H](C)[C@H](NC(=O)[C@@H]1CCCN1C(=O)CNC(=O)[C@H](Cc1ccccc1)NC(=O)[C@H](CC(N)=O)NC(=O)[C@@H]1CCCN1C(=O)[C@H](CO)NC(=O)[C@H](CO)NC(=O)[C@H](Cc1c[nH]cn1)NC(=O)[C@H](CCCNC(=N)N)NC(=O)[C@H](CC(C)C)NC(=O)[C@H](Cc1ccccc1)NC(=O)[C@H](CCC(=O)O)NC(=O)[C@H](C)NC(=O)[C@H](CC(C)C)NC(=O)[C@H](CCCNC(=N)N)NC(=O)[C@H](CCC(N)=O)NC(=O)[C@@H](NC(=O)[C@H](C)NC(=O)[C@@H]1CSSC[C@H](NC(=O)[C@H](CCCCN)NC(=O)CC[C@H](NC(=O)CCCCCCCCCCCCCCCCCCC(=O)O)C(=O)O)C(=O)N[C@@H](CC(N)=O)C(=O)N[C@@H]([C@@H](C)O)C(=O)N[C@@H](C)C(=O)N[C@@H]([C@@H](C)O)C(=O)N1)[C@@H](C)O)C(=O)N[C@@H](CC(C)C)C(=O)N1CCC[C@H]1C(=O)N1CCC[C@H]1C(=O)N[C@H](C(=O)N[C@@H](CC(N)=O)C(=O)N[C@H](C(=O)NCC(=O)N[C@@H](CO)C(=O)N[C@@H](CC(N)=O)C(=O)N[C@H](C(=O)N1CCC[C@H]1C(N)=O)[C@@H](C)O)C(C)C)[C@@H](C)O
notes: also called compound 4
B2: N^α1-[(4S)-4-carboxy-4-(19-carboxynonadecanoylamino)butanoyl]-[Glu14,Arg17,Pro21,Pro25,Pro28,Pro29]-h-amylin (peptide)
peptide: {C20 diacid-γGlu}-KCNTATCATQRLAEFLRHSSPNFGPILPPTNVGSNTY-NH2
modifications: disulfide 2-7
SMILES: CC[C@H](C)[C@H](NC(=O)[C@@H]1CCCN1C(=O)CNC(=O)[C@H](Cc1ccccc1)NC(=O)[C@H](CC(N)=O)NC(=O)[C@@H]1CCCN1C(=O)[C@H](CO)NC(=O)[C@H](CO)NC(=O)[C@H](Cc1c[nH]cn1)NC(=O)[C@H](CCCNC(=N)N)NC(=O)[C@H](CC(C)C)NC(=O)[C@H](Cc1ccccc1)NC(=O)[C@H](CCC(=O)O)NC(=O)[C@H](C)NC(=O)[C@H](CC(C)C)NC(=O)[C@H](CCCNC(=N)N)NC(=O)[C@H](CCC(N)=O)NC(=O)[C@@H](NC(=O)[C@H](C)NC(=O)[C@@H]1CSSC[C@H](NC(=O)[C@H](CCCCN)NC(=O)CC[C@H](NC(=O)CCCCCCCCCCCCCCCCCCC(=O)O)C(=O)O)C(=O)N[C@@H](CC(N)=O)C(=O)N[C@@H]([C@@H](C)O)C(=O)N[C@@H](C)C(=O)N[C@@H]([C@@H](C)O)C(=O)N1)[C@@H](C)O)C(=O)N[C@@H](CC(C)C)C(=O)N1CCC[C@H]1C(=O)N1CCC[C@H]1C(=O)N[C@H](C(=O)N[C@@H](CC(N)=O)C(=O)N[C@H](C(=O)NCC(=O)N[C@@H](CO)C(=O)N[C@@H](CC(N)=O)C(=O)N[C@H](C(=O)N[C@@H](Cc1ccc(O)cc1)C(N)=O)[C@@H](C)O)C(C)C)[C@@H](C)O
notes: also called compound 6
B3: N^ε1-[(4S)-4-carboxy-4-(13-carboxytridecanoylamino)butanoyl]-[Arg17,Pro21,Pro27,His34]-h-amylin (peptide)
peptide: K([γGlu-C14 diacid])CNTATCATQRLANFLRHSSPNFGAIPSSTNVGHNTY-NH2
modifications: disulfide 2-7; N-terminus assumed
SMILES: CC[C@H](C)[C@H](NC(=O)[C@H](C)NC(=O)CNC(=O)[C@H](Cc1ccccc1)NC(=O)[C@H](CC(N)=O)NC(=O)[C@@H]1CCCN1C(=O)[C@H](CO)NC(=O)[C@H](CO)NC(=O)[C@H](Cc1c[nH]cn1)NC(=O)[C@H](CCCNC(=N)N)NC(=O)[C@H](CC(C)C)NC(=O)[C@H](Cc1ccccc1)NC(=O)[C@H](CC(N)=O)NC(=O)[C@H](C)NC(=O)[C@H](CC(C)C)NC(=O)[C@H](CCCNC(=N)N)NC(=O)[C@H](CCC(N)=O)NC(=O)[C@@H](NC(=O)[C@H](C)NC(=O)[C@@H]1CSSC[C@H](NC(=O)[C@@H](N)CCCCNC(=O)CC[C@H](NC(=O)CCCCCCCCCCCCC(=O)O)C(=O)O)C(=O)N[C@@H](CC(N)=O)C(=O)N[C@@H]([C@@H](C)O)C(=O)N[C@@H](C)C(=O)N[C@@H]([C@@H](C)O)C(=O)N1)[C@@H](C)O)C(=O)N1CCC[C@H]1C(=O)N[C@@H](CO)C(=O)N[C@@H](CO)C(=O)N[C@H](C(=O)N[C@@H](CC(N)=O)C(=O)N[C@H](C(=O)NCC(=O)N[C@@H](Cc1c[nH]cn1)C(=O)N[C@@H](CC(N)=O)C(=O)N[C@H](C(=O)N[C@@H](Cc1ccc(O)cc1)C(N)=O)[C@@H](C)O)C(C)C)[C@@H](C)O

What was measured:
[1] = molecular target: T1, human amylin receptor (amylin 3(a) …); test: cell-based or functional assay
[2] = molecular target: T2, human calcitonin receptor; test: cell-based or functional assay
[3] = molecular target: T1, human amylin receptor (amylin 3(a) …); test: SPA competition, displacement of 125I-rat amylin from membranes of BHK cells with the human amylin 3(a) receptor
Method: (§1) The binding assay was performed using scintillation proximity assay (SPA) beads (RPNQ0001) from PerkinElmer and cell membranes from the Amylin 3(a)/CRE-luc cells (as described in Assay (II)) were used. Membranes were prepared in the following way; the cells were rinsed with PBS and incubated with Versene for approximately 5 min before harvesting. The cells were flushed with PBS and the cell-suspension was centrifuged for 5 min at 1000 rpm. Cells were homogenized (ultrathurrax) in a buffer containing 20 mM Na-HEPES and 10 mM EDTA (pH 7.4) and centrifuged at 20.000 rpm for 15 min. The resulting pellet was resuspended, homogenized and centrifuged (20.000 rpm, 15 min) in a buffer containing 20 mM Na-HEPES and 0.1 mM EDTA (pH 7.4, buffer 2). The resulting pellet was resuspended in buffer 2 and protein concentration was measured (BCA protein Assay, Pierce). The homogenate was kept cold during the whole procedure. The membranes were kept at −80° C. until use. The assay was performed in a 384 well Optiplate (PerkinElmer) in a total volume of 40 ul. Membranes were mixed with SPA beads. Final concentration of membranes 35 ng/μL final and SPA beads was 0.05 mg/well. Test-compounds were dissolved in DMSO and further diluted in assay buffer (50 mM Hepes, pH 7.4, 1 mM CaCl2, 5 mM MgCl₂, 0.1% OA and 0.02% Tween20). […] The final mixture was incubated with shaking at 400 rpm for 120 min at 25° C. prior to centrifugation (1500 rpm, 10 min). Samples were analyzed on TopCounter™ (Packard). The IC₅₀ was calculated using (one site binding competition analysis) GraphPad Prism5 as a measure of receptor affinity.

[4] = molecular target: T3, human calcitonin receptor; test: SPA competition binding, displacement of 125I-calcitonin from membranes with human calcitonin receptor (Assay VII)
Method: Membranes were prepared in the following way; the cells were rinsed with PBS and incubated with Versene for approximately 5 min before harvesting. The cells were flushed with PBS and the cell-suspension was centrifuged for 5 min at 1000 rpm. Cells were homogenized (Ultrathurrax) in a buffer containing 20 mM Na-HEPES and 10 mM EDTA (pH 7.4) and centrifuged at 20.000 rpm for 15 min. The resulting pellet was resuspended, homogenized and centrifuged (20.000 rpm, 15 min) in a buffer containing 20 mM Na-HEPES and 0.1 mM EDTA (pH 7.4, buffer 2). The resulting pellet was resuspended in buffer 2 and protein concentration was measured (BCA protein Assay, Pierce). The homogenate was kept cold during the whole procedure. The membranes were kept at −80° C. until use. Assay was performed in a 384 well Optiplate (PerkinElmer) in a total volume of 40 ul. Membranes were mixed with SPA beads. Final concentration of membranes 35 ng/μL final and Final concentration of SPA beads was 0.05 mg/well. Test-compounds were dissolved in DMSO and further diluted in assay buffer (50 mM Hepes, pH 7.4, 1 mM CaCl2, 5 mM MgCl₂, 0.1% OA and 0.02% Tween20). […] The final mixture was incubated for 120 min with shaking at 400 rpm at 25° C. prior to centrifugation (1500 rpm, 10 min). Samples were analyzed on TopCounter™ (Packard). The […] was calculated using (one site binding competition analysis) GraphPad Prism5 as a measure of receptor affinity.

[5] = molecular target: T4, human calcitonin receptor; test: ratio of hCTR IC50 to hAmylin-R IC50 (reference: human amylin receptor)
In short: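 Competition binding by SPA uses membrane preparations (35 ng/μL final) in pH 7.4 Hepes buffer with 1 mM CaCl2 and 5 mM MgCl₂. Incubation lasts 120 min at 25° C, and IC₅₀ comes from one-site fitting.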

[6] = molecular target: T5, human amylin receptor (amylin 3(a) …); test: SPA competition on BHK cell membranes, 125I-rat amylin as radioligand (Assay V)
Method: as §1

[7] = molecular target: T4, human calcitonin receptor; test: SPA competition on BHK cell membranes, 125I-calcitonin as radioligand (Assay VII)
In short: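 BHK hCTR membranes 35 ng/μL + SPA beads 0.05 mg/well; buffer 50 mM Hepes pH 7.4, 1 mM CaCl2, 5 mM MgCl₂, 0.1% OA, 0.02% Tween20. 120 min, 25° C., shaking. Scintillation count; IC50 by one-site binding competition.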

Row | Binder | hAmylin-R funct. EC50 [1] | Ratio hCT/hAmylin funct. [2] | hCTR funct. EC50 [2] | IC50 [3] | IC50 [4] | Ratio hCT/hAmylin binding [5] | IC50 [6] | IC50 [7]
1 | B1 | 60 pM | 1.2 | 70 pM | 321 pM |  |  |  | 
2 | B2 | 128 pM | 5.7 | 729 pM | 996 pM |  |  |  | 
3 | K([γGlu-γGlu-C20 diacid])CNTATCATQRLA[dD]FLRHSSPNFGAIPSSTNVGSRTY-NH2 (disulfide 2-7 (inferred)) |  |  |  |  | 112000 pM |  |  | 
4 | B3 |  |  |  |  |  | 23.5 | 1040 pM | 24300 pM
